This passage reports Kd results from the Immune Epitope Database (IEDB).

For one assay, the target named is HLA-B*53:01. Nature of the assay: IEDB peptide-MHC binding, purified MHC/competitive/fluorescence; filed as Kd, often an IC50 or EC50 that approximates it; ≥ and ≤ were set here for values at or beyond the usual limits of such assays. The following applies: source organism: Vibrio cholerae 2740-80.
The target in the next assay is HLA-B*08:01. The description is as above. The note with it: source organism: Vibrio cholerae 2740-80.
A further assay concerns the target HLA-A*01:01. Described as above. The following applies: source organism: Vibrio cholerae 2740-80.
The next assay has as its target HLA-B*27:05. The description is as above. The following applies: source organism: Vibrio cholerae 2740-80.
The target in another assay is HLA-B*58:01. The description is as above. The note with it: source organism: Vibrio cholerae 2740-80.
Another assay addresses HLA-B*44:02. The assay is described as above. The following applies: source organism: Vibrio cholerae 2740-80.
A further assay concerns the target HLA-A*66:01. The assay is described as above. The following applies: source organism: Vibrio cholerae 2740-80.
Another assay has as its target HLA-A*30:01. The description is as above. The following applies: source organism: Vibrio cholerae 2740-80.
The target in the next assay is HLA-A*30:02. Described as above. The note with it: source organism: Vibrio cholerae 2740-80.
The target in a further assay is HLA-B*51:01. Described as above. The following applies: source organism: Vibrio cholerae 2740-80.
In the next assay the target is HLA-B*14:02. The description is as above. The following applies: source organism: Vibrio cholerae 2740-80.
The next assay deals with HLA-B*07:02. The description is as above. The following applies: source organism: Vibrio cholerae 2740-80.
The next assay has as its target HLA-A*11:01. The description is as above. The following applies: source organism: Vibrio cholerae 2740-80.
A further assay deals with HLA-B*40:01. Described as above. The note with it: source organism: Vibrio cholerae 2740-80.
For a further assay, the target named is HLA-A*26:01. Nature of the assay: IEDB peptide-MHC binding, purified MHC/direct/fluorescence; filed as Kd, often an IC50 or EC50 that approximates it; ≥ and ≤ were set here for values at or beyond the usual limits of such assays. The note with it: source organism: Vibrio cholerae V52.
A further assay deals with HLA-A*02:03. The description is as above. The note with it: source organism: Vibrio cholerae V52.
A further assay has as its target HLA-A*02:11. The assay is described as above. The following applies: source organism: Vibrio cholerae V52.
A further assay deals with HLA-B*39:01. Described as above. The following applies: source organism: Vibrio cholerae V52.
The target of another assay is HLA-A*02:19. Described as above. The following applies: source organism: Vibrio cholerae V52.
Another assay concerns the target HLA-A*02:16. The description is as above. The note with it: source organism: Vibrio cholerae V52.
The target of another assay is HLA-A*03:01. The description is as above. The following applies: source organism: Vibrio cholerae V52.
For another assay, the target named is HLA-B*15:17. Described as above. The following applies: source organism: Vibrio cholerae V52.
A further assay has as its target HLA-A*24:03. The assay is described as above. The following applies: source organism: Vibrio cholerae V52.
The target in a further assay is HLA-B*15:01. The description is as above. The note with it: source organism: Vibrio cholerae V52.

Consider MGMEQTMSV, for which the Kd with HLA-B*53:01, with HLA-B*08:01, with HLA-A*01:01, in the assay with HLA-B*27:05, with HLA-B*58:01 and with HLA-B*44:02 was at least 5 µM throughout. For the same sequence, the Kd with HLA-A*66:01, with HLA-A*30:01, with HLA-A*30:02, with HLA-B*51:01, with HLA-B*14:02 and in the assay with HLA-B*07:02 was at least 5 µM in each case. In addition, the Kd with HLA-A*11:01 is at least 5 µM; with HLA-B*40:01 it was at least 5 µM; in the assay with HLA-A*26:01 it was at least 20 µM; in the assay with HLA-A*02:03, at least 20 µM; with HLA-A*02:11 it was at least 20 µM; with HLA-B*39:01, at least 20 µM. The Kd with HLA-A*02:19, in the assay with HLA-A*02:16, with HLA-A*03:01, in the assay with HLA-B*15:17, in the assay with HLA-A*24:03 and with HLA-B*15:01 was at least 20 µM throughout.

Usually Kd stands for the concentration at which binding is half-saturated.
